Test results reported in publication PMC5681266.

Legend:
[1] = molecular target: atypical chemokine receptor 3 (human (endogenous in hPPAEC)) (UniProt P25106)
[2] = molecular target: chemokine (C-X-C) motif receptor (CXCR) 4 (human (endogenous in hPPAEC)) (UniProt P61073)
UniProt P61073, sequence (P61073 whole entry): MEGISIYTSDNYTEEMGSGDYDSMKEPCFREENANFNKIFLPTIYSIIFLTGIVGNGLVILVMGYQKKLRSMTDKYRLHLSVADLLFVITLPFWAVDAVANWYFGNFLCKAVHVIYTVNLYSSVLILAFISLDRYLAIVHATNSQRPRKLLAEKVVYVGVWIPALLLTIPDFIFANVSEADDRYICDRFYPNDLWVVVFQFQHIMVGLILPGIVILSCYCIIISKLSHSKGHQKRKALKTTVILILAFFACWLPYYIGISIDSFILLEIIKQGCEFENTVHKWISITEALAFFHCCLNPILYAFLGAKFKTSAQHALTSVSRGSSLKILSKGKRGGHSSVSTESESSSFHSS

UniProt P25106, sequence (P25106 whole entry): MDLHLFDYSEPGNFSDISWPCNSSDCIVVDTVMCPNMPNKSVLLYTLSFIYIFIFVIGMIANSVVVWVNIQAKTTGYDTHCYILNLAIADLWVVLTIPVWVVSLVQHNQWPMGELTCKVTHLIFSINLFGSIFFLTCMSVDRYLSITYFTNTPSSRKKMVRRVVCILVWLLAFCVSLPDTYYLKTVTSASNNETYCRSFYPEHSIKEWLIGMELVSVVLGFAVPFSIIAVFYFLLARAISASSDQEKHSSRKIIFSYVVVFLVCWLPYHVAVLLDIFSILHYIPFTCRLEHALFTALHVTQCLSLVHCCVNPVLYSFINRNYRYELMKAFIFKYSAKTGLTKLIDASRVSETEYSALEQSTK

| Substance | EC50 of β-arrestin 2 recruitment to ACKR3, Presto-Tango (Tango plasmid in HTLA cells) [1] [nM] | efficacy (top plateau) of β-arrestin 2 recruitment to ACKR3, Presto-Tango, % of CXCL12α [1] [%] | EC50 of β-arrestin 2 recruitment to CXCR4, Presto-Tango (Tango plasmid in HTLA cells) [2] [nM] | efficacy (top plateau) of β-arrestin 2 recruitment to CXCR4, Presto-Tango, % of CXCL12α [2] [%] |
| --- | --- | --- | --- | --- |
| CXCL12 K27A/R41A/R47A (from UniProt P48061-2 22-89) (ligand) | 1.2 | 83 | 145 | 111 |
| CXCL12β (from UniProt P48061 22-93) (ligand) | 1.5 | 103 | 1.4 | 73 |
| CXCL12 R47E (from UniProt P48061-2 22-89) (ligand) | 0.4 | 86 | 127 | 105 |

Other lines, results leading:

| EC50 of β-arrestin 2 recruitment to ACKR3, Presto-Tango (Tango plasmid in HTLA cells) [1] [nM] | efficacy (top plateau) of β-arrestin 2 recruitment to ACKR3, Presto-Tango, % of CXCL12α [1] [%] | EC50 of β-arrestin 2 recruitment to CXCR4, Presto-Tango (Tango plasmid in HTLA cells) [2] [nM] | efficacy (top plateau) of β-arrestin 2 recruitment to CXCR4, Presto-Tango, % of CXCL12α [2] [%] | Substance |
| --- | --- | --- | --- | --- |
| 13.3 | 19 | > 1000 |  | N-terminal truncated CXCL12 (3–68) (from UniProt P48061-2 24-89) (domain or fragment) |
| 0.7 | 88 | 75 | 117 | CXCL12 S-S4V, a protease resistant mutant (from UniProt P48061-2 22-89) (ligand) |
| 5.6 | 98 | 27 | 103 | CXCL12_(1), engineered constitutively monomeric CXCL12 variant (from UniProt P48061-2 22-89) (ligand) |
| 8.8 | 87 | 2.4 | 90 | CXCL12_(2), disulfide-locked dimeric CXCL12 variant (from UniProt P48061-2 22-89) (ligand) |
